The record followed here is article PMC7064778.

Read-outs that look alike come from different tables or passages of the source.

The target in experiment [1] is PyoS5_(1–315) (P. aeruginosa) (UniProt Q9I4Y4). As to the kind of experiment: SPR.
Experiment [2] shares this target. The experiment is described as follows: SPR. The source holds these as a separate data set.

For orientation: Kd means a measure of binding affinity in units of concentration. A low value points to tighter binding. As for TonB1_(109–342) (domain or fragment), the dissociation constant (Kd) stood at 230 nM in experiment [1] and 241 nM in experiment [2].
